Laboratory results published in US20240358731A1, “SUMO PATHWAY AS AN OXYGEN SENSOR RELEVANT TO THE PATHOPHYSIOLOGY OF PULMONARY ARTERY HYPERTENSION AND CARDIAC ARRHYTHMIA” (Northeastern University, priority 2023, published 2024).
Values joined by “and” are separate entries in the source; they are usually repeats but may differ in a detail not shown here. Equal entries are not always repeated. “Also recorded” adds a separate entry of the source.

T1: Kir2.4 (Homo sapiens, UniProt Q9UNX9)
T1 sequence (Q9UNX9 1-436): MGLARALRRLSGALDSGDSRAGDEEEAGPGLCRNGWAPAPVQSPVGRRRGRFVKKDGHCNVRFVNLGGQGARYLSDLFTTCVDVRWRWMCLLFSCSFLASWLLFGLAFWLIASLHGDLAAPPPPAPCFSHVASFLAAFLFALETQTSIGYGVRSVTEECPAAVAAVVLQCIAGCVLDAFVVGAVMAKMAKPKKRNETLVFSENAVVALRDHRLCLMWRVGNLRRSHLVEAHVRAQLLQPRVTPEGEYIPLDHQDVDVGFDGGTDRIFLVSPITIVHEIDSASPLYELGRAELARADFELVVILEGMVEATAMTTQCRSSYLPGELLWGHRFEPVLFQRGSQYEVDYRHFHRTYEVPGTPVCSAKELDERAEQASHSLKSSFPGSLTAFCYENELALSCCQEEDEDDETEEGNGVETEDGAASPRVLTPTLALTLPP

T2: Kir2.3 (Homo sapiens, UniProt P48050)
T2 construct: expressed in transfected cells; host or cells: Xenopus oocytes
T2 sequence (P48050 1-445): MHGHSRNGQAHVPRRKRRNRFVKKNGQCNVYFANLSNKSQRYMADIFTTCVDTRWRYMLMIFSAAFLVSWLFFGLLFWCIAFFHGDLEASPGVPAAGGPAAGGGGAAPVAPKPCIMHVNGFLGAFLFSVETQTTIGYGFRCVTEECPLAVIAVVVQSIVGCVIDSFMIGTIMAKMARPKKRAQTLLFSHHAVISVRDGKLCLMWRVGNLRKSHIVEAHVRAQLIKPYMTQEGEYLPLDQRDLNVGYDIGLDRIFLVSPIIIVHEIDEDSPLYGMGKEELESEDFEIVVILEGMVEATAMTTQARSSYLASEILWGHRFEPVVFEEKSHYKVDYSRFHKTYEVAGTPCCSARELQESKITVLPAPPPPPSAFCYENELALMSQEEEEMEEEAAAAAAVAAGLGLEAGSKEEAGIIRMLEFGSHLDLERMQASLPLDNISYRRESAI


What was measured:
[1] = tested on: human pulmonary artery smooth muscle cells; experiment: Whole cell patch clamp of human pulmonary artery smooth muscle cells, ambient O2 vs acute hypoxia; format: cell-based; details: pretreatment with 100 nM
Source text: FIGS. 10A-10B show whole cell patch clamp recording of human pulmonary artery smooth muscle cells. […] The decrease is statistically significant, *, P<0.05 by Students t-test.
The hPASMCs are in primary culture and were studies by whole cell patch clamp at ambient levels of oxygen (˜21% O2) and under acute hypoxia (2% O2). Cells were studied in quasi-physiological buffers with high external concentrations of potassium using recording protocols.

Kir2.4 channels = experiment: Whole-cell patch-clamp of Kir2.4 currents in transfected HEK293T cells under acute hypoxia; format: cell-based, human
Protocol: Hypoxia diminishes Kir2.4 activity in a TAK981 sensitive manner. HEK293T cells were transiently transfected with plasmid DNA for Kir2.4 channels. Inward rectifying currents were elicited in response to a high [K]^+ (140 mM) buffer using a −80 mV to +80 mV ramp protocol. Following stabilization in the high K^+ buffer, the cells were subjected to a hypoxic (2% O2) perfusate. Acute hypoxia evoked a ˜30% decrease in Kir2.4 currents. Recordings were terminated with the perfusion of 10 mM Ba^2+ (FIGS. 3A, 3B).
Next, we repeated the experiment using that were preincubated with 100 nM TAK981 for one hour. We observed that the hypoxic decrease in Kir2.4 currents was abolished in cells pre-treated with TAK981 (FIGS. 3C, 3D).

Kir2.4 = biological target: T1, Kir2.4; experiment: Whole-cell patch-clamp of Kir2.4 in HEK293 cells with SUMO1 or SENP1 in the recording pipette; format: cell-based; design: expressed in transfected cells
Protocol: Currents were measured at −80 mV in 140 mM external K+.
Similarly, currents were no longer enhanced by SENP1.
SUMOylation regulates Kir2.4 channels in mammalian cells. Next, we tested if SUMO could regulate Kir2.4 channels in mammalian cells. Kir2.4 channels were transiently expressed in HEK293 cells and studied in whole-cell mode with 140 mM bath [K]^+, using a ramp protocol from −80 to +80 mV. Purified SUMO1 or SENP1 peptide were introduced via the recording pipette. At 1 nM, SUMO1, but not heat-denatured SUMO1, inhibited Kir2.4 currents by ˜40 and 60%, respectively, within one-minute of breakthrough. In contrast, 1 nM SENP1 increased the current by ˜50% (FIG. 7).
The PIP2-dependence of SUMO-regulation. Using the 5-ptaseOCRL system, we depleted PIP2 in HEK293 cells expressing Kir2.4 and studied currents with 1 nM SUMO1, or SENP1 in the recording pipette. When currents were recorded after 5-min activation of the optogenetic probe, 5-ptaseOCRL, the inhibitory effect of 1 nM SUMO1 on Kir2.4 was reduced from ˜40% to ˜7% (FIG. 9). Current augmentation observed with SENP1 in the pipette was reduced from […] to ˜6%. These preliminary data support the conclusion that SUMO-regulation of Kir2.4 channels is PIP2-dependent.

Kir2.3 = biological target: T2, Kir2.3; experiment: Two-electrode voltage-clamp of Kir2.3 currents in Xenopus oocytes; format: cell-based; details: co-expression
Source text: FIG. 5A discloses SEQ ID NOS 6-9, respectively, in order of appearance. […] SENP1 increases the current. […] SUMO sensitivity is transferred to Kir2.3 when the site in Kir2.1 is recreated by mutagenesis (Kir2.3-N25D).
Co-expressed SUMO decreases Kir2.4 currents in Xenopus oocytes. Using the SUMOplot algorithm to assess potential SUMOylation sites based on the canonical motif ψ-K-X-E/D, we identified the high probability SUMO site V-K54-K-D (SEQ ID NO: 4) in the N-terminal sequence of Kir2.4. SUMO covalently modifies Kir2.4 at K54 (FIG. 5) and tested the idea using two-electrode voltage-clamp (TEVC), a sensitive assay to study the regulation of Kir channels. Kir2.4 currents, assessed at −80 mV in a high K^+ (96 mM) bath solution, decreased in a dose-dependent manner with co-expression of SUMO1 (FIG. 5). Co-injection of 5 ng of human SUMO1 RNA decreased Kir2.4 currents by ˜50%. In contrast, expression of SENP1 increased Kir2.4 by ˜50%. […] The analogous sequence in Kir2.2 and Kir2.3 is V-K-K-N(SEQ ID NO: 5), which lacks the terminal aspartic acid, reduced the probability of SUMOylation from 0.93 to 0.31. Consistent with this, Kir2.3 currents were insensitive to SUMO1 and SENP1. […] This last result is consistent with a protein-protein interaction between the channel and SUMO1.

Row | Molecule | effect on hypoxia-induced change of hPASMC inward current ([1]; 2% O2) | effect on initial current in ambient O2 ([1]; ambient O2) | effect on hypoxic decrease in Kir2.4 currents (Kir2.4 channels; preincubated with 100 nM for one hour, 2% O2) | tolerability of pretreatment in cells (Kir2.4 channels; pretreating cells) | inhibition of Kir2.4 currents after PIP2 depletion (Kir2.4; 1 nM SUMO1, after 5-min activation of 5-ptaseOCRL) [%] | inhibition of Kir2.4 currents (Kir2.4; 1 nM in pipette, 140 mM bath K+, within one-minute of breakthrough) | sensitivity of Kir2.3 currents (Kir2.3) | increase of Kir2.4 current (Kir2.4; 1 nM SENP1 in pipette) | Kir2.4 current augmentation after PIP2 depletion (Kir2.4; 1 nM SENP1 in pipette, after 5-min activation of 5-ptaseOCRL) [%]
1 | Cc1sc(C(=O)c2cncnc2N[C@@H]2C[C@H](COS(N)(=O)=O)[C@@H](O)C2)cc1[C@@H]1NCCc2ccc(Cl)cc21 [TAK981, Subasumstat] | prevents hypoxia induced changes; also recorded: precludes the change in the current caused by acute hypoxia | does not alter the magnitude or the phenotype of the initial current | abolished; also recorded: precludes hypoxic inhibition of Kir2 currents | tolerated by the cells | – | – | – | – | –
2 | SUMO1: purified SUMO1 (small ubiquitin-related modifier) protein introduced via the recording pipette or co-expressed | – | – | – | – | ~7 | ~40% and ~60% | insensitive | – | –
3 | SENP1: purified deSUMOylating enzyme (SUMO specific protease) introduced via the recording pipette or expressed (protein, UniProt Q9P0U3 1-644, looked up) Sentrin-specific protease 1: MDDIADRMRMDAGEVTLVNHNSVFKTHLLPQTGFPEDQLSLSDQQILSSRQGHLDRSFTCSTRSAAYNPSYYSDNPSSDSFLGSGDLRTFGQSANGQWRNSTPSSSSSLQKSRNSRSLYLETRKTSSGLSNSFAGKSNHHCHVSAYEKSFPIKPVPSPSWSGSCRRSLLSPKKTQRRHVSTAEETVQEEEREIYRQLLQMVTGKQFTIAKPTTHFPLHLSRCLSSSKNTLKDSLFKNGNSCASQIIGSDTSSSGSASILTNQEQLSHSVYSLSSYTPDVAFGSKDSGTLHHPHHHHSVPHQPDNLAASNTQSEGSDSVILLKVKDSQTPTPSSTFFQAELWIKELTSVYDSRARERLRQIEEQKALALQLQNQRLQEREHSVHDSVELHLRVPLEKEIPVTVVQETQKKGHKLTDSEDEFPEITEEMEKEIKNVFRNGNQDEVLSEAFRLTITRKDIQTLNHLNWLNDEIINFYMNMLMERSKEKGLPSVHAFNTFFFTKLKTAGYQAVKRWTKKVDVFSVDILLVPIHLGVHWCLAVVDFRKKNITYYDSMGGINNEACRILLQYLKQESIDKKRKEFDTNGWQLFSKKSQEIPQQMNGSDCGMFACKYADCITKDRPINFTQQHMPYFRKRMVWEILHRKLL | – | – | – | – | – | – | insensitive | ~50% and ~40% | ~6
